T1: Human Angiopoietin-2 full-length (hAng2) (human, UniProt O15123 19-496)
T1 construct: The cell assays used full-length hAng2 from R&D Systems; also called human Ang2; A2
T1 sequence: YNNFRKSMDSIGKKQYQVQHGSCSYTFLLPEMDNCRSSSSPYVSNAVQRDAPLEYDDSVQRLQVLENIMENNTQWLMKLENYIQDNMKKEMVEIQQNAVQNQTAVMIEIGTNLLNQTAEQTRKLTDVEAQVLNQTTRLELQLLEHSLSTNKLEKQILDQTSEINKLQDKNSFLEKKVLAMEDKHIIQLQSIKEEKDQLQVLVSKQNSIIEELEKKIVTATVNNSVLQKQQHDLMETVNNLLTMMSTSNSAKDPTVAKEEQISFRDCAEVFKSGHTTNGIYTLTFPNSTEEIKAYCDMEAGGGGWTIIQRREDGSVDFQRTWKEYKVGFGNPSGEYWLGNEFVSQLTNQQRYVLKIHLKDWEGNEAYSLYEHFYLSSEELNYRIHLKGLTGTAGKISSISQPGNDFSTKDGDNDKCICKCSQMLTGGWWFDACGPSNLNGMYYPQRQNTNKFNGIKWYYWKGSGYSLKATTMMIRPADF


Biological target: T1, Human Angiopoietin-2 full-length (hAng2)
Experiment: BLI (Octet), antibody fixed on AR2G sensor, hAng2 3.125-50 nM in solution, 1:1 global fit
Protocol: The affinity of humanized anti-Ang2 antibody against hAng2 was measured using Octet system (ForteBio). Specifically, buffer and samples were measured in total 200 μl/well using Black 96-well plates (96 well F-type black plates, Greiner). […] After the hydration, humanized anti-Ang2 antibody was diluted in 10 mM sodium acetate, pH 6.0 buffer at a concentration of 10 μg/ml, fixed on AR2G biosensor, and blocked with 1M ethanolamine. The recombinant hAng2 was diluted to 50, 25, 12.5, 6.25, 3.125, and 0 nM with 1× kinetic buffer, and subjected to association for 300 sec and dissociation for 900 sec.
The affinities of humanized 2C8 antibodies to hAng2 were in Table 15.

| Binder | Kd [pM] | koff [s⁻¹] | kon [M⁻¹ s⁻¹] |
| --- | --- | --- | --- |
| humanized anti-Ang2 antibody 2C8H32 (antibody, V domains shown, Full-length human IgG1) VH: QVQLVQSGAEVKKPGASVKVSCKASGYSFTSYWMHWVRQAPGQGLEWIGMIDPSDSETRLNQKFKDKASMTRDTSTSTVYMELSSLRSEDTAVYYCARRFYYGSDWYFDVWGQGTLVTVSS VL: DIQLTQSPSFLSASVGDRVSITCKASQDVGTAVAWYQQKPGKAPKLLIYWASTRHTGVPDRFSGSGSGTEFTLTISSLQPEDFATYYCQQYSSYPLTFGQGTKVEIK | 197 | 1.49e-05 | 75700 |
| 2C8H11G4 (human IgG4 class antibody of 2C8H11) (antibody, V domains shown, The heavy chain constant region (CH1-hinge-CH2-CH3) was replaced by an IgG4 class constant region; also called 2C8H11-IgG4) VH: QVQLVQSGAEVKKPGASVKVSCKASGYTFTSYWMHWVRQAPGQGLEWMGMIDPSDSETRLNQKFKDRVTMTRDTSTSTVYMELSSLRSEDTAVYYCARRFYYGSDWYFDVWGQGTLVTVSS VL: DIQLTQSPSFLSASVGDRVTITCKASQDVGTAVAWYQQKPGKAPKLLIYWASTRHTGVPSRFSGSGSGTEFTLTISSLQPEDFATYYCQQYSSYPLTFGQGTKVEIK | 10.5 | 4.35e-06 | 415000 |
| humanized anti-Ang2 antibody 2C8H12 (antibody, V domains shown, Full-length human IgG1) VH: QVQLVQSGAEVKKPGASVKVSCKASGYTFTSYWMHWVRQAPGQGLEWMGMIDPSDSETRLNQKFKDRVTMTRDTSTSTVYMELSSLRSEDTAVYYCARRFYYGSDWYFDVWGQGTLVTVSS VL: DIQLTQSPSFLSASVGDRVSITCKASQDVGTAVAWYQQKPGKAPKLLIYWASTRHTGVPDRFSGSGSGTEFTLTISSLQPEDFATYYCQQYSSYPLTFGQGTKVEIK | 139 | 1.33e-05 | 95200 |
| humanized anti-Ang2 antibody 2C8H13 (antibody, V domains shown, Full-length human IgG1) VH: QVQLVQSGAEVKKPGASVKVSCKASGYTFTSYWMHWVRQAPGQGLEWMGMIDPSDSETRLNQKFKDRVTMTRDTSTSTVYMELSSLRSEDTAVYYCARRFYYGSDWYFDVWGQGTLVTVSS VL: DIQLTQSPSFLSASVGDRVSITCKASQDVGTAVAWYQQKPGKAPKLLIYWASTRHTGVPDRFSGSGSGTEFTLTISSLQPEDFADYFCQQYSSYPLTFGQGTKVEIK | 246 | 2.77e-05 | 113000 |
| humanized anti-Ang2 antibody 2C8H21 (antibody, V domains shown, Full-length human IgG1) VH: QVQLVQSGAEVKKPGASVKVSCKASGYSFTSYWMHWVRQAPGQGLEWIGMIDPSDSETRLNQKFKDRVTMTRDTSTSTVYMELSSLRSEDTAVYYCARRFYYGSDWYFDVWGQGTLVTVSS VL: DIQLTQSPSFLSASVGDRVTITCKASQDVGTAVAWYQQKPGKAPKLLIYWASTRHTGVPSRFSGSGSGTEFTLTISSLQPEDFATYYCQQYSSYPLTFGQGTKVEIK | 135 | 1.5e-05 | 111000 |
| humanized anti-Ang2 antibody 2C8H22 (antibody, V domains shown, Full-length human IgG1) VH: QVQLVQSGAEVKKPGASVKVSCKASGYSFTSYWMHWVRQAPGQGLEWIGMIDPSDSETRLNQKFKDRVTMTRDTSTSTVYMELSSLRSEDTAVYYCARRFYYGSDWYFDVWGQGTLVTVSS VL: DIQLTQSPSFLSASVGDRVSITCKASQDVGTAVAWYQQKPGKAPKLLIYWASTRHTGVPDRFSGSGSGTEFTLTISSLQPEDFATYYCQQYSSYPLTFGQGTKVEIK | 115 | 6.84e-06 | 59600 |
| humanized anti-Ang2 antibody 2C8H23 (antibody, V domains shown, Full-length human IgG1) VH: QVQLVQSGAEVKKPGASVKVSCKASGYSFTSYWMHWVRQAPGQGLEWIGMIDPSDSETRLNQKFKDRVTMTRDTSTSTVYMELSSLRSEDTAVYYCARRFYYGSDWYFDVWGQGTLVTVSS VL: DIQLTQSPSFLSASVGDRVSITCKASQDVGTAVAWYQQKPGKAPKLLIYWASTRHTGVPDRFSGSGSGTEFTLTISSLQPEDFADYFCQQYSSYPLTFGQGTKVEIK | 287 | 2.28e-05 | 79500 |
| humanized anti-Ang2 antibody 2C8H31 (antibody, V domains shown, Full-length human IgG1) VH: QVQLVQSGAEVKKPGASVKVSCKASGYSFTSYWMHWVRQAPGQGLEWIGMIDPSDSETRLNQKFKDKASMTRDTSTSTVYMELSSLRSEDTAVYYCARRFYYGSDWYFDVWGQGTLVTVSS VL: DIQLTQSPSFLSASVGDRVTITCKASQDVGTAVAWYQQKPGKAPKLLIYWASTRHTGVPSRFSGSGSGTEFTLTISSLQPEDFATYYCQQYSSYPLTFGQGTKVEIK | 266 | 2.21e-05 | 83200 |
| humanized anti-Ang2 antibody 2C8H33 (antibody, V domains shown, Full-length human IgG1) VH: QVQLVQSGAEVKKPGASVKVSCKASGYSFTSYWMHWVRQAPGQGLEWIGMIDPSDSETRLNQKFKDKASMTRDTSTSTVYMELSSLRSEDTAVYYCARRFYYGSDWYFDVWGQGTLVTVSS VL: DIQLTQSPSFLSASVGDRVSITCKASQDVGTAVAWYQQKPGKAPKLLIYWASTRHTGVPDRFSGSGSGTEFTLTISSLQPEDFADYFCQQYSSYPLTFGQGTKVEIK | 44.5 | 3.99e-06 | 89600 |
| humanized anti-Ang2 antibody 2C8H41 (antibody, V domains shown, Full-length human IgG1) VH: QVQLVQSGAEVKKPGASVKVSCKASGYSFTSYWMHWVKQAPGQGLEWIGMIDPSDSETRLNQKFKDKASMTRDTSTSTVYMELSSLRSEDTAVYYCARRFYYGSDWYFDVWGQGTLVTVSS VL: DIQLTQSPSFLSASVGDRVTITCKASQDVGTAVAWYQQKPGKAPKLLIYWASTRHTGVPSRFSGSGSGTEFTLTISSLQPEDFATYYCQQYSSYPLTFGQGTKVEIK | 249 | 1.67e-05 | 67000 |
| humanized anti-Ang2 antibody 2C8H42 (antibody, V domains shown, Full-length human IgG1) VH: QVQLVQSGAEVKKPGASVKVSCKASGYSFTSYWMHWVKQAPGQGLEWIGMIDPSDSETRLNQKFKDKASMTRDTSTSTVYMELSSLRSEDTAVYYCARRFYYGSDWYFDVWGQGTLVTVSS VL: DIQLTQSPSFLSASVGDRVSITCKASQDVGTAVAWYQQKPGKAPKLLIYWASTRHTGVPDRFSGSGSGTEFTLTISSLQPEDFATYYCQQYSSYPLTFGQGTKVEIK | 381 | 3.07e-05 | 80600 |
| humanized anti-Ang2 antibody 2C8H43 (antibody, V domains shown, Full-length human IgG1) VH: QVQLVQSGAEVKKPGASVKVSCKASGYSFTSYWMHWVKQAPGQGLEWIGMIDPSDSETRLNQKFKDKASMTRDTSTSTVYMELSSLRSEDTAVYYCARRFYYGSDWYFDVWGQGTLVTVSS VL: DIQLTQSPSFLSASVGDRVSITCKASQDVGTAVAWYQQKPGKAPKLLIYWASTRHTGVPDRFSGSGSGTEFTLTISSLQPEDFADYFCQQYSSYPLTFGQGTKVEIK | 373 | 2.65e-05 | 71100 |
| humanized anti-Ang2 antibody 2C8H51 (antibody, V domains shown, Full-length human IgG1) VH: QVQLVQSGAEVKKPGASVKVSCKASGYSFTSYWMHWVKQAPGQGLEWIGMIDPSDSETRLNQKFKDKASLTVDTSTSTVYMELSSLRSEDTAVYYCARRFYYGSDWYFDVWGQGTLVTVSS VL: DIQLTQSPSFLSASVGDRVTITCKASQDVGTAVAWYQQKPGKAPKLLIYWASTRHTGVPSRFSGSGSGTEFTLTISSLQPEDFATYYCQQYSSYPLTFGQGTKVEIK | 137 | 9.61e-06 | 70200 |
| humanized anti-Ang2 antibody 2C8H52 (antibody, V domains shown, Full-length human IgG1) VH: QVQLVQSGAEVKKPGASVKVSCKASGYSFTSYWMHWVKQAPGQGLEWIGMIDPSDSETRLNQKFKDKASLTVDTSTSTVYMELSSLRSEDTAVYYCARRFYYGSDWYFDVWGQGTLVTVSS VL: DIQLTQSPSFLSASVGDRVSITCKASQDVGTAVAWYQQKPGKAPKLLIYWASTRHTGVPDRFSGSGSGTEFTLTISSLQPEDFATYYCQQYSSYPLTFGQGTKVEIK | 243 | 1.99e-05 | 81900 |
| humanized anti-Ang2 antibody 2C8H53 (antibody, V domains shown, Full-length human IgG1) VH: QVQLVQSGAEVKKPGASVKVSCKASGYSFTSYWMHWVKQAPGQGLEWIGMIDPSDSETRLNQKFKDKASLTVDTSTSTVYMELSSLRSEDTAVYYCARRFYYGSDWYFDVWGQGTLVTVSS VL: DIQLTQSPSFLSASVGDRVSITCKASQDVGTAVAWYQQKPGKAPKLLIYWASTRHTGVPDRFSGSGSGTEFTLTISSLQPEDFADYFCQQYSSYPLTFGQGTKVEIK | 384 | 3.11e-05 | 80900 |
| 4B9H11G4 (human IgG4 class antibody of 4B9H11) (antibody, V domains shown, The heavy chain constant region was replaced by an IgG4 class constant region; The sentence prints '4B9 heavy chain gene' where 4B9H11 is meant; also called 4B9H11-IgG4) VH: QVQLVESGGGLVKPGGSLRLSCAASGFTFSDYYMYWIRQAPGKGLEWVSTISVGGSFTYYPDSVKGRFTISRDNAKNSLYLQMNSLRAEDTAVYYCARDWGLRPWFVYWGQGTLVTVSS VL: DIQMTQSPSSLSASVGDRVTITCKASQDVSTAVAWYQQKPGKAPKLLIYWASTRHTGVPSRFSGSGSGTDFTLTISSLQPEDFATYYCQQHYSTPPTFGQGTKVEIK | 80 | 3.46e-05 | 432000 |
| humanized anti-Ang2 antibody 4B9H21 (antibody, V domains shown, Full-length human IgG1) VH: QVQLVESGGGLVKPGGSLRLSCAASGFTFSDYYMYWVRQAPGKGLEWVSTISVGGSFTYYPDSVKGRFTISRDNAKNSLYLQMNSLRAEDTAVYYCARDWGLRPWFVYWGQGTLVTVSS VL: DIQMTQSPSSLSASVGDRVTITCKASQDVSTAVAWYQQKPGKAPKLLIYWASTRHTGVPSRFSGSGSGTDFTLTISSLQPEDFATYYCQQHYSTPPTFGQGTKVEIK | 121 | 8.94e-06 | 73700 |

Source: patent publication US20210079083A1 (INSTITUTE FOR BASIC SCIENCE, published 2021)
